# Measured values: US20140128320A1 (TRUSTEES OF COLUMBIA UNIVERSITY IN THE CITY OF NEW YORK, published 2014)
# Target: T1, insulin receptor (InsR) expressed in ROS17/2.8 osteoblast cells (rat (by the cell line;  for …, UniProt P15127 27-1383, limits assumed)
# T1 construct: The species is inferred from the cell line only; also called insulin receptor in ROS cells
# Assay: GST pull-down (substrate trapping) from ROS17/2.8 cell lysate, western blot
# Procedure: Recombinant proteins bound to Sepharose beads for 1 hour at 4° C. (insulin receptor trapping) or for 2 h at 4° C. […] Precipitates were collected, washed four times with lysis buffer and resolved on SDS-PAGE, followed by western blotting. Insulin receptor (InsR) was detected using rabbit anti-insulin receptor antibodies (Santa-Cruz, C-19) and GST was detected by mouse anti-GST antibodies (Santa-Cruz).
# T1 sequence (P15127 27-1383 limits assumed): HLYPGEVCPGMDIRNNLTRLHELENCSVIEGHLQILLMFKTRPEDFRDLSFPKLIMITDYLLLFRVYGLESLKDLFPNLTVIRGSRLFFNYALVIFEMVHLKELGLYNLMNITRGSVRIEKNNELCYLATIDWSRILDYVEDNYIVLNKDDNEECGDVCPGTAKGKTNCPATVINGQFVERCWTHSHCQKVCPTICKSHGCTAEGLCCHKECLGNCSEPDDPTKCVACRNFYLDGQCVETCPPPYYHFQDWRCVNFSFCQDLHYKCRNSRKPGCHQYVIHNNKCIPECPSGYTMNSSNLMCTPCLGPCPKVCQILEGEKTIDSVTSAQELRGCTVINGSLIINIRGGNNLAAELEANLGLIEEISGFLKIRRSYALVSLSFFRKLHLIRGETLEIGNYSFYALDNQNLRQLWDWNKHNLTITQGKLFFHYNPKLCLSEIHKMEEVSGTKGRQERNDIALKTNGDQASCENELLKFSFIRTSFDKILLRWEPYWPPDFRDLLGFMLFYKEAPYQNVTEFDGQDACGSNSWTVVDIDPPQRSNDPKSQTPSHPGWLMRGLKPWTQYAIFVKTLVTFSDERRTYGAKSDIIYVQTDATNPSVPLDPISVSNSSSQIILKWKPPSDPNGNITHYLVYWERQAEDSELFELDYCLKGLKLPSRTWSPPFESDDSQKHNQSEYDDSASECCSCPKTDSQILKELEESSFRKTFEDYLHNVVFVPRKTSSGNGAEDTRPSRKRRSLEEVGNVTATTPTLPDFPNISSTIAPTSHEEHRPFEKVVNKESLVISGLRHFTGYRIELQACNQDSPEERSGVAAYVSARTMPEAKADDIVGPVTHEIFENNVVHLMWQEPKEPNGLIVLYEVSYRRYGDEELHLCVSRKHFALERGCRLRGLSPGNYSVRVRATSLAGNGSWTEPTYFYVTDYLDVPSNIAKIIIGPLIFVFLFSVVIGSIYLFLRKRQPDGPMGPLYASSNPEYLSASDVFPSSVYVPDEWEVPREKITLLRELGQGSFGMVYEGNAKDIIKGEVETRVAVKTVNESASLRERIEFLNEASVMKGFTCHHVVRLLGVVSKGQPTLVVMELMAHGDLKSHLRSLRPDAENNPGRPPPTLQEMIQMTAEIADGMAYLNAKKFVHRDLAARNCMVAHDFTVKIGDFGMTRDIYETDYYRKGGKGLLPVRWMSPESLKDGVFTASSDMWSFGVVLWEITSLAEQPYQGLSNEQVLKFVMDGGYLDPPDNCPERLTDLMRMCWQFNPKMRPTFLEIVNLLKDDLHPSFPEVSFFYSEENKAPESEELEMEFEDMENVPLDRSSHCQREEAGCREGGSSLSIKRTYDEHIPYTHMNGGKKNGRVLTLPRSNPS
binder,measurement,value
"GST-PTP^WT (a fusion of GST with the phosphatase domain I of OST-PTP, rat a.a. 1116-1412) (enzyme, also called WT OST-PTP; not shown: Glutathione S-transferase (GST) encoded by the vector pGEX 4T3 (Amersham)) KELMPYNLWRTHRPIPIHSFRQSYEAKSAHAHQTFFQEFEELKEVGKDQPRLEAEHPDNIIKNRYPHVLPYDHSRVRLTQLPGEPHSDYINANFIPGYSHTQEIIATQGPLKKTLEDFWRLVWEQQVHVIIMLTVGMENGRVLCEHYWPANSTPVTHGHITIHLLAEEPEDEWTRREFQLQHGTEQKQRRVKQLQFTTWPDHSVPEAPSSLLAFVELVQEQVQATQGKGPILVHCSAGVGRTGTFVALLRLLRQLEEEKVADVFNTVYILRLHRPLMIQTLSQYIFLHSCLLNKILE",binding result,no binding
